This data set deals with T1, His-Vfr (UniProt P55222 1-214).
T1 sequence: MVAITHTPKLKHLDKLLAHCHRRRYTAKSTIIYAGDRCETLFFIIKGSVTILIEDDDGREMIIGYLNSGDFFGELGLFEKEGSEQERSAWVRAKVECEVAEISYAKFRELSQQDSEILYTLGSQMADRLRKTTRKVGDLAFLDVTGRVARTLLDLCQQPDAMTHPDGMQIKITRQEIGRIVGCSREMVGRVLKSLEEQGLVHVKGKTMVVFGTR
The data set can be described thus: EMSA. In general terms: Mobility shift assays separate free from complexed probe on a gel.

Where a chain is given by its changes, count along the chain named.

B1: Vfr CRE probe (dsDNA)
DNA 1: TCCACGACAATGTGCCTCGCTTGGAAGCTCACGCTCCTCACACAGACGAAAAC
DNA 2: GTTTTCGTCTGTGTGAGGAGCGTGAGCTTCCAAGCGAGGCACATTGTCGTGGA
Turning to B1, the binding result is “binds”.

B2: Vfr CRE-Δ probe (dsDNA)
DNA 1: B1 DNA 1 with T11C, G12C, T13C, G14A
DNA 2: B1 DNA 2 with C40T, A41G, C42G, A43G
Consider B2, for which the binding result is listed as “no binding”.

(Values after publication PMC6393702.)
